Test results as given in patent publication US20250320269A1 (ALBERT EINSTEIN COLLEGE OF MEDICINE, published 2025).
Where a chain is given by its changes, count along the chain named.

B1: 1G5 mAb (antibody, V domains shown)
VH: QVQLQQPGAELVKPGASVKLSCKASGYTFTSYWMHWVKQRPGQGLEWIGMIHPNSGSTNYNEKFKSKATLTVDKSSSTAYMQLSSLTSEDSAVYYCARGGYFDYWGQGTTLTVSS
VL: DIVMTQSQKFMSTSVGDRVSVTCKASQNVGTNVAWYQQKPGQSPKALIYSASYRYSGVPDRFTGSGSGTDFTLTISNVQSEDLAEYFCQQYNSYPYTFGGGTKLEIKR
notes: Mouse hybridoma mAb, IgG3 with kappa chain
B2: 15F9 mAb (antibody, V domains shown)
VH: B1 VH with S31N, G99R, Y101D, F102G
VL: DIQMTRHPSSLSASMGERVSLTCRASQEISGYLSWLQQKPDGTIKRLIYAASTLDSGVPKRFSGSRSGSDYSLTISSLESEDFADYYCLQYASYPYTFGGGTKLEI
notes: as for B1
B3: 12B4 mAb (antibody, V domains shown)
VH: QVQLQQPGAELVKPGASVKLSCKASGYTFTSYWMHWVKQRPGQGLEWIGMIHPNSGSTNYNEKFKSKATLTVDKSSSTAYMQLSSLTSEDSAVYYCARYYYGSSYAMDYWGQGTSVTVS
VL: QIVLTQSPAIMSASPGEKVTITCSASSSVSYMHWFQQKPGTSPKLWIYSTSNLASGVPARFSGSGSGTSYSLTISRMEAEDAATYYCQQRSSYPYTFGGGTKLEIKR
notes: Mouse hybridoma mAb, IgG3 with kappa chain; also called 124; 1214
B4: 8B12 mAb (antibody, V domains shown)
VH: QVQLQQPGAELVKPGASVKMSCKASGYTFTSYWITWVKQRPGQGLEWIGDIYPGSGSTNYNEKFKSKATLTVDTSSSTAYMQLSSLTSEDSAVYYCARGGTRFSPFAYWGQGTLVTVSA
VL: DVLMTQTPLSLPVSLGDQASISCRSSQSIVHSNGNTYLEWYLQKPGQSPKLLIYKVSNRFSGVPDRFSGSGSGTDFTLKISRVEAEDLGVYYCFQGSHVPWTFGGGTKLEIKR
notes: Mouse hybridoma mAb, IgG3 with kappa chain; also called 8K12; 81812
B5: 23B2 mAb (antibody, V domains shown)
VH: QVQLQQPGAELVKPGASVKLSCKASGYTFTSYWMHWVKQRPGQGLEWIGMIHPNSGSTNYNEKFKSKATLTVDKSSSTAYMQLSSLTSEDSAVYYCARESRQLDYWGQGTTLTVSS
VL: QIVLTQSPAIMSASPGEKVTMTCSASSSISYMHWYQQKPGTSPKRWIYDTSKLASGVPARFSGSGSGTSYSLTISSMEAEDAATYYCHQRSSYPLTFGAGTKLELK
notes: Mouse hybridoma mAb, IgG1 with kappa chain; also called 231B2
B6: 24D12 mAb (antibody, V domains shown)
VH: QVQLQQPGAELVKPGASVKLSCKASGYTFTSYWMHWVKQRPGQGLEWIGMIHPNSGSTNYNEKFKSKATLTVDKSSSTAYMQLSSLTSEDSAVYYCANYYGTNVWGTGTTVTVS
VL: DIVLTQSPASLAVSLGQRATISYRASKSVSTSGYSYMHWNQQKPGQPPRLLIYLVSNLESGVPARFSGSGSGTDFTLNIHPVEEEDAATYYCQHIREAYTFGRG

Each binder was assayed against T1, Mouse B7-H3 (mouse, UniProt Q8VE98 29-244, limits assumed) (assay: surface plasmon resonance).
T1 construct: also called mouse B7-H3 protein
T1 sequence (looked up): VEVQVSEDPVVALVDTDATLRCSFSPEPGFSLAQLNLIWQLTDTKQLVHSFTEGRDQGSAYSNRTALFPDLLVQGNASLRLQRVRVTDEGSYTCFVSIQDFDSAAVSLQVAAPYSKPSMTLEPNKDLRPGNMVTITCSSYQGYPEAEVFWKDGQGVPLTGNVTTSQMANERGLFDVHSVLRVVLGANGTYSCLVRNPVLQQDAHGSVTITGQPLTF

| Binder | Kd |
| --- | --- |
| B1 | 0.81 nM |
| B2 | 1.76 nM |
| B3 | 1.71 nM |
| B4 | 4.01 nM |
| B5 | 10.2 nM |
| B6 | 1.76 nM |

The binders below were run against T2, Human B7-H3 (human, UniProt Q5ZPR3 29-461, limits assumed) (assay: surface plasmon resonance).
T2 construct: also called human B7-H3 protein; CD276
T2 sequence (looked up): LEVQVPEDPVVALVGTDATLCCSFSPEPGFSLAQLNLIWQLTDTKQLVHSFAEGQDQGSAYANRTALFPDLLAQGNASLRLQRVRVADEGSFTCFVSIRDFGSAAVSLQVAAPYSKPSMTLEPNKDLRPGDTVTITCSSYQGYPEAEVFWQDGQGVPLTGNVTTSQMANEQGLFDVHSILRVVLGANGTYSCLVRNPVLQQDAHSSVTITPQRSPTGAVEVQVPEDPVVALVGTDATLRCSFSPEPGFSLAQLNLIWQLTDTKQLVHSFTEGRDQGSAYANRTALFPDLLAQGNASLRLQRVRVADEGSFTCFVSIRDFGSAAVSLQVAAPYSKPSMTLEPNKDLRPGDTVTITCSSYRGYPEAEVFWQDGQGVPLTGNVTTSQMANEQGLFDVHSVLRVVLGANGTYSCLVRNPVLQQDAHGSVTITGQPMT

| Binder | Kd |
| --- | --- |
| B1 | 4.86 nM |
| B2 | 4.51 nM |
| B3 | 5.62 nM |
| B4 | 0.32 nM |
| B5 | 11.1 nM |
| B6 | 4.51 nM |
